{"source": "paper PMC3806657", "about": "(Molecular Biology of the Cell, 2013)", "binders": {"B1": {"name": "GST-Rho1 (enzyme)", "chain": "MATELRRKLVIVGDGACGKTCLLIVFSKGTFPEVYVPTVFENYVADVEVDGRHVELALWDTAGQEDYDRLRPLSYPDSHVILICFAVDSPDSLDNVQEKWISEVLHFCSSLPILLVACKADLRNDPKIIEELSKTNQHPVTTEEGQAVAQKIGAYKYLECSAKTNEGVREVFESATRAAMLKHKPKVKPSSGTKKKKRCILL"}, "B2": {"name": "GST-Rho4 (enzyme)", "chain": "MSAFKKSGSKSETSKKLVVVGDGGCGKTCLLIVFSSGTFPERYVPTVFENYITDITYGPNSKVIELALWDTAGQEEYDRLRPLSYPNSNVILLCFSIDCPASLNNVTEKWYPEVQHFCPRTPIVLVGLKADLRKDRNATEVLRTQGLTPVTYQQAQSVALSMNAPYVECSAKENTGVNEVFQLAVGLTIKKSFSFSKKSCVIL"}, "B3": {"name": "GST-Rho5 (enzyme)", "chain": "MTTELRRKLVIVGDGACGKTCLLIVFSKGTFPEVYVPTVFENYVADVEVDGRHIELALWDTAGQEDYDRLRPLSYPDSHVVLICFSVDAPESLDNVQEKWISEVLHFCSNLPILLVGCKVDLRNDPKTIEELSKTSQKPITFEEGQVVAQKIGAYKYLECSAKLNEGVNEVFETAARASMLKFKPASVPKTKKKKHCILL"}}, "data": [{"biological_target": "T1, 6His-tagged GEF domain of Gef2 (aa 211-600) (S. pombe, UniProt Q09733 211-600)", "T1 sequence": "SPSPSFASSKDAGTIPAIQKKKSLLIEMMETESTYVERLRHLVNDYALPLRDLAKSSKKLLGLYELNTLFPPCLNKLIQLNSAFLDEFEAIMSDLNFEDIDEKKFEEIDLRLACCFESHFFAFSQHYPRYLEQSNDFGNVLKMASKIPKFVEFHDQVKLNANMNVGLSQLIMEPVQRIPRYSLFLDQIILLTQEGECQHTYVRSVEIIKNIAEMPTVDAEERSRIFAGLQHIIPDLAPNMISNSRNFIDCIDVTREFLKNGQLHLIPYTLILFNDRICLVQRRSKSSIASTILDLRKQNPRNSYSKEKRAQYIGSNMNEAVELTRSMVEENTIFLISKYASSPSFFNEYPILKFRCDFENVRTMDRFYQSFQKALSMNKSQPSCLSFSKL", "test": "pull-down", "values": [{"binder": "B1", "binding result": "binds"}, {"binder": "B2", "binding result": "binds"}, {"binder": "B3", "binding result": "binds"}]}]}
